Measured values reported in publication PMC9482650, “Quantitative fragmentomics allow affinity mapping of interactomes” (Nature Communications, 2022).

Columns and labels:
Assay in all cases: holdup assay
Parameters in all cases: key: below the threshold = too weak to quantify, mostly under pKd 3.1 to 4
[1] = biological target: Inadl_10, Q8NI35
[2] = biological target: MAGI1_1, Q96QZ7
[3] = biological target: T1, DLG3_1, Q92796
T1 sequence (Q92796 125-227, limits assumed, looked up): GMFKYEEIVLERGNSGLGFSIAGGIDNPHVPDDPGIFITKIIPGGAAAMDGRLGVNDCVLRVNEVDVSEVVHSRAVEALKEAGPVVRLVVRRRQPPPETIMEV

[4] = biological target: Inadl_1, Q8NI35
Inadl_1, Q8NI35, sequence (Q8NI35 113-229): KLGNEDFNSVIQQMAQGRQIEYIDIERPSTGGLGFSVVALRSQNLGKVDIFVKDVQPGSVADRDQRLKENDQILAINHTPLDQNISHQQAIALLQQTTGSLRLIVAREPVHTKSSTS

[5] = biological target: T2, RADIL, Q96JH8
T2 sequence (Q96JH8 971-1071, limits assumed, looked up): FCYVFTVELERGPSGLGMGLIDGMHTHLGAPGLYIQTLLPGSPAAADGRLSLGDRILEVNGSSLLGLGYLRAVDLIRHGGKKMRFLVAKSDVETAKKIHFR

[6] = biological target: MAGI2_2, Q86UL8
MAGI2_2, Q86UL8, sequence (Q86UL8 410-522): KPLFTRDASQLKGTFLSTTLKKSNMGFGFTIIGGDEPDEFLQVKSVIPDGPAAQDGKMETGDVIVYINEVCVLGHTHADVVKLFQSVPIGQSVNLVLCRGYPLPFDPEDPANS

[7] = biological target: FRMPD2_3, Q68DX3
FRMPD2_3, Q68DX3, sequence (Q68DX3 1073-1166): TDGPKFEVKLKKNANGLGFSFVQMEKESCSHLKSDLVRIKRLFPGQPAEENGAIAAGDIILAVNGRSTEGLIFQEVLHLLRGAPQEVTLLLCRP

[8] = biological target: GRID2IP_1, A4D2P6
GRID2IP_1, A4D2P6, sequence (A4D2P6 1-87): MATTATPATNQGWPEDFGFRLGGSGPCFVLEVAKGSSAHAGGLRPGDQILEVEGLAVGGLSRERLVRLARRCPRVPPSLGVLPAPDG

[9] = biological target: Inadl_5, Q8NI35
Inadl_5, Q8NI35, sequence (Q8NI35 673-780): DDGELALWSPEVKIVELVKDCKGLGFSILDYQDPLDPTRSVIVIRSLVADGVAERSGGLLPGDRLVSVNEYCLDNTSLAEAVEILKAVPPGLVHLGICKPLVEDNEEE

[10] = biological target: T3, DFNB31_2, Q9P202
T3 sequence (Q9P202 274-371, limits assumed, looked up): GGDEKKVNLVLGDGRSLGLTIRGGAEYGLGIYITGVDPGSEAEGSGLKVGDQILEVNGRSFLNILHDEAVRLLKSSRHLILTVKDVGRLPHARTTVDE

[11] = biological target: T4, PARD3B_1, Q8TEW8
T4 sequence (Q8TEW8 196-299, limits assumed, looked up): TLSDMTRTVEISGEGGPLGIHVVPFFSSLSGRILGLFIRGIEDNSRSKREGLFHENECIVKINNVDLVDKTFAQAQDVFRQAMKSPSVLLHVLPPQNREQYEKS

[12] = biological target: T5, MPDZ_10, O75970
T5 sequence (O75970 1624-1722, limits assumed, looked up): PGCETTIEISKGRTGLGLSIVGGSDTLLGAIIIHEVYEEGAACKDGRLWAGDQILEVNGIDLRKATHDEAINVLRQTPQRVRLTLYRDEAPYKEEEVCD

[13] = biological target: T6, NHERF3_1, Q5T2W1
T6 sequence (Q5T2W1 4-100, limits assumed, looked up): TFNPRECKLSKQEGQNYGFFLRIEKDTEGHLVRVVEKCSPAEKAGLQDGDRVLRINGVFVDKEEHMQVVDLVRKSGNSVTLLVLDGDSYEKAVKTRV

[14] = biological target: GIPC2, Q8TF65
GIPC2, Q8TF65, sequence (Q8TF65 112-203): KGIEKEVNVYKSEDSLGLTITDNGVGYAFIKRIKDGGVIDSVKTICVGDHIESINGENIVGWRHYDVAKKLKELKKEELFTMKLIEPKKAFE

[15] = biological target: GRASP, Q7Z6J2
GRASP, Q7Z6J2, sequence (Q7Z6J2 96-193): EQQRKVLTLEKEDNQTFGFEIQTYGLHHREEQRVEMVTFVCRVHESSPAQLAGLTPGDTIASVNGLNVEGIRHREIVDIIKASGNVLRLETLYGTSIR

[16] = biological target: IL16_3, Q14005
IL16_3, Q14005, sequence (Q14005 1107-1207): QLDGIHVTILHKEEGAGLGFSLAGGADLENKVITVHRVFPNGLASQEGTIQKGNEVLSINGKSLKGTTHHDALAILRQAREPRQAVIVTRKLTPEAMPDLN

[17] = biological target: PDLIM1, O00151
PDLIM1, O00151, sequence (O00151 1-87): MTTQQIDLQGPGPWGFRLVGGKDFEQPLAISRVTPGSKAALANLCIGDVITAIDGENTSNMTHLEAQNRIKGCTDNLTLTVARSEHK

[18] = biological target: T7, LIN7A, O14910
T7 sequence (O14910 103-200, limits assumed, looked up): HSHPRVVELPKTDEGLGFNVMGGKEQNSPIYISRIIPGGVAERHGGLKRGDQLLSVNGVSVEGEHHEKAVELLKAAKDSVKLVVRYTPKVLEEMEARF

[19] = biological target: TJP2_1, Q9UDY2
TJP2_1, Q9UDY2, sequence (Q9UDY2 24-128): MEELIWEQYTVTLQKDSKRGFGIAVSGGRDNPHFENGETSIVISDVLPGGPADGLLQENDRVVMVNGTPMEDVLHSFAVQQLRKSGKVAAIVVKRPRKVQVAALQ

[20] = biological target: SCRIB_2, Q14160
SCRIB_2, Q14160, sequence (Q14160 857-960): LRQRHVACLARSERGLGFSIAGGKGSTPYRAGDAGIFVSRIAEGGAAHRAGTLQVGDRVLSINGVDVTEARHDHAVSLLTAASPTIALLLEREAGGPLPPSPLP

[21] = biological target: CASK, O14936
CASK, O14936, sequence (O14936 487-570): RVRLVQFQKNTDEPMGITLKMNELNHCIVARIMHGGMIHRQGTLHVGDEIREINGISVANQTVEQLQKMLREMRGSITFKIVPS

[22] = biological target: T8, FRMPD1, Q5SYB0
T8 sequence (Q5SYB0 52-145, limits assumed, looked up): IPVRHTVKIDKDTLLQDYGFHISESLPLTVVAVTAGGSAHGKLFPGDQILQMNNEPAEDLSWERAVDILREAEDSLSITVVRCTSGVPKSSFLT

[23] = biological target: T9, MPDZ_5, O75970
T9 sequence (O75970 695-796, limits assumed, looked up): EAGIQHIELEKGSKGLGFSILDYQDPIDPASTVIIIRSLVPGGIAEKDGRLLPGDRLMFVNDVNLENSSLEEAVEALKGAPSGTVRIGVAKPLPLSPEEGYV

[24] = biological target: GRIP2_3, Q9C0E4
GRIP2_3, Q9C0E4, sequence (Q9C0E4 238-339): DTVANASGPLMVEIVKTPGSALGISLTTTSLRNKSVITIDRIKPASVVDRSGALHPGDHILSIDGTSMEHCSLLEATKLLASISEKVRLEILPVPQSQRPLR

[25] = biological target: MAGI2_3, Q86UL8
MAGI2_3, Q86UL8, sequence (Q86UL8 600-682): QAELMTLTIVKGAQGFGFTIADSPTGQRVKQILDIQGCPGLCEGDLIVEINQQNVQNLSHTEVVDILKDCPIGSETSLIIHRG

[26] = biological target: SCRIB_1, Q14160
SCRIB_1, Q14160, sequence (Q14160 718-814): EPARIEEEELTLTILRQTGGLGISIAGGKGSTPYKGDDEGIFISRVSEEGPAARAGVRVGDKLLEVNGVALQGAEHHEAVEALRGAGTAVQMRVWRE

[27] = biological target: DLG2_3, Q15700
[28] = biological target: T10, DFNB31_1, Q9P202
T10 sequence (Q9P202 135-233, limits assumed, looked up): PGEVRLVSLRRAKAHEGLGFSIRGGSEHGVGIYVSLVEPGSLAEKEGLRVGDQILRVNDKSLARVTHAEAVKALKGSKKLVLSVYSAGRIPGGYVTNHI

[29] = plain residues with an end cap or a label only (N-terminal biotin on a linker: ahx)
[30] = plain residues with an end cap or a label only (N-terminal biotin on a linker: ttds)

Inadl_10, Q8NI35, sequence (Q8NI35 1673-1763): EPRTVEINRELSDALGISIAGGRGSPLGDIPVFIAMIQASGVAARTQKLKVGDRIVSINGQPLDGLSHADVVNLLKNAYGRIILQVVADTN
MAGI1_1, Q96QZ7, sequence (Q96QZ7 1-106): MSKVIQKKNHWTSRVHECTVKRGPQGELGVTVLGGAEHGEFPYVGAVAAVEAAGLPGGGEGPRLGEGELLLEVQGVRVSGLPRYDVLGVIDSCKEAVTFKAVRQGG

B1: TJP3, O95049 (peptide)
chain: GYDWGPATDL
pKd [1, 29]: 3.62 | pKd [2, 29]: below the threshold | pKd [3, 29]: 3.48 | pKd [4, 29]: below the threshold | pKd [5, 29]: below the threshold | pKd [6, 29]: below the threshold | pKd [7, 29]: below the threshold | pKd [8, 29]: below the threshold | pKd [9, 29]: below the threshold | pKd [10, 29]: below the threshold | pKd [11, 29]: 3.65 | pKd [12, 29]: below the threshold | pKd [13, 29]: below the threshold | pKd [14, 29]: 3.73 | pKd [15, 29]: 4.14 | pKd [16, 29]: below the threshold | pKd [17, 29]: 4.41 | pKd [18, 29]: 3.66 | pKd [19, 29]: below the threshold | pKd [20, 29]: 3.78 | pKd [21, 29]: below the threshold | pKd [22, 29]: below the threshold | pKd [23, 29]: below the threshold | pKd [24, 29]: below the threshold | pKd [25, 29]: below the threshold | pKd [26, 29]: 3.76 | pKd [27, 29]: 3.52 | pKd [28, 29]: 4.11

B2: HPV18-E6, P06463 (peptide)
chain: RLQRRRETQV
pKd [1, 30]: below the threshold | pKd [2, 30]: below the threshold | pKd [3, 30]: 4.34 | pKd [4, 30]: below the threshold | pKd [5, 30]: 3.28 | pKd [6, 30]: 5.16 | pKd [7, 30]: below the threshold | pKd [8, 30]: below the threshold | pKd [9, 30]: 3.52 | pKd [10, 30]: below the threshold | pKd [11, 30]: below the threshold | pKd [12, 30]: 3.56 | pKd [13, 30]: 4.05 | pKd [14, 30]: below the threshold | pKd [15, 30]: below the threshold | pKd [16, 30]: below the threshold | pKd [17, 30]: below the threshold | pKd [18, 30]: 3.4 | pKd [19, 30]: 3.89 | pKd [20, 30]: 4.44 | pKd [21, 30]: below the threshold | pKd [22, 30]: below the threshold | pKd [23, 30]: below the threshold | pKd [24, 30]: below the threshold | pKd [25, 30]: 4.15 | pKd [26, 30]: 4.26 | pKd [27, 30]: 5.06 | pKd [28, 30]: below the threshold

B3: FRMPD4, Q14CM0 (peptide)
chain: RLPKIKETTV
pKd [1, 30]: below the threshold | pKd [2, 30]: below the threshold | pKd [3, 30]: 4.51 | pKd [4, 30]: below the threshold | pKd [5, 30]: below the threshold | pKd [6, 30]: 4.73 | pKd [7, 30]: below the threshold | pKd [8, 30]: below the threshold | pKd [9, 30]: below the threshold | pKd [10, 30]: 4.12 | pKd [11, 30]: 3.45 | pKd [12, 30]: below the threshold | pKd [13, 30]: below the threshold | pKd [14, 30]: below the threshold | pKd [15, 30]: 3.47 | pKd [16, 30]: below the threshold | pKd [17, 30]: below the threshold | pKd [18, 30]: 4.38 | pKd [19, 30]: below the threshold | pKd [20, 30]: 4.61 | pKd [21, 30]: below the threshold | pKd [22, 30]: below the threshold | pKd [23, 30]: below the threshold | pKd [24, 30]: below the threshold | pKd [25, 30]: 4.05 | pKd [26, 30]: 4.95 | pKd [27, 30]: 5.15 | pKd [28, 30]: 3.96

B4: SLC16A3, O15427 (peptide)
chain: EVVHTPETSV
pKd [1, 30]: below the threshold | pKd [2, 30]: below the threshold | pKd [3, 30]: below the threshold | pKd [4, 30]: below the threshold | pKd [5, 30]: below the threshold | pKd [6, 30]: below the threshold | pKd [7, 30]: below the threshold | pKd [8, 30]: below the threshold | pKd [9, 30]: below the threshold | pKd [10, 30]: below the threshold | pKd [11, 30]: below the threshold | pKd [12, 30]: below the threshold | pKd [13, 30]: below the threshold | pKd [14, 30]: below the threshold | pKd [15, 30]: below the threshold | pKd [16, 30]: below the threshold | pKd [17, 30]: below the threshold | pKd [18, 30]: below the threshold | pKd [19, 30]: below the threshold | pKd [20, 30]: 4.48 | pKd [21, 30]: below the threshold | pKd [22, 30]: below the threshold | pKd [23, 30]: below the threshold | pKd [24, 30]: below the threshold | pKd [25, 30]: below the threshold | pKd [26, 30]: 5.08 | pKd [27, 30]: 4.35 | pKd [28, 30]: 3.86
